B1: Chemotaxis protein CheA (Escherichia coli (strain K12)), P07363 (parent)
chain: MSMDISDFYQTFFDEADELLADMEQHLLVLQPEAPDAEQLNAIFRAAHSIKGGAGTFGFSVLQETTHLMENLLDEARRGEMQLNTDIINLFLETKDIMQEQLDAYKQSQEPDAASFDYICQALRQLALEAKGETPSAVTRLSVVAKSEPQDEQSRSQSPRRIILSRLKAGEVDLLEEELGHLTTLTDVVKGADSLSAILPGDIAEDDITAVLCFVIEADQITFETVEVSPKISTPPVLKLAAEQAPTGRVEREKTTRSNESTSIRVAVEKVDQLINLVGELVITQSMLAQRSSELDPVNHGDLITSMGQLQRNARDLQESVMSIRMMPMEYVFSRYPRLVRDLAGKLGKQVELTLVGSSTELDKSLIERIIDPLTHLVRNSLDHGIELPEKRLAAGKNSVGNLILSAEHQGGNICIEVTDDGAGLNRERILAKAASQGLTVSENMSDDEVAMLIFAPGFSTAEQVTDVSGRGVGMDVVKRNIQKMGGHVEIQSKQGTGTTIRILLPLTLAILDGMSVRVADEVFILPLNAVMESLQPREADLHPLAGGERVLEVRGEYLPIVELWKVFNVAGAKTEATQGIVVILQSGGRRYALLVDQLIGQHQVVVKNLESNYRKVPGISAATILGDGSVALIVDVSALQAINREQRMANTAA
partner: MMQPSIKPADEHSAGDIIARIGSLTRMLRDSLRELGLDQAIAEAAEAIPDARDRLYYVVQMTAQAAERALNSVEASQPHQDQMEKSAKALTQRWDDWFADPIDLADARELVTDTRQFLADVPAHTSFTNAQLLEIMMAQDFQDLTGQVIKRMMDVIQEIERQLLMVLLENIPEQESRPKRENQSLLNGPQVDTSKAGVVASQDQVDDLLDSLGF

Variants of: B1
Conditions: with chez_ecoli cheZ

Effect of a mutation on the interaction, decreasing interaction strength:
L126C
R124C
L123C
Y118C
